From the DeepSol protein solubility set come the findings set out here.

A short description of this data set: soluble on expression in E. coli; label from the status in PepcDB or PDB records.
For the sequence “DDDLEVKEENGVWVLNDGNFDNFVADKDTVLLEFYAPWCGHCKQFAPEYEKIASTLKDNDPPIAVAKIDATSASMLASKFDVSGYPTIKILKKGQAVDYDGSRTQEEIVAKVREVSQPDWTPPPEVT”, the “soluble on expression in E. coli” value is on record as “soluble”.

Consider “DDIHLIATSDVLYFKAEEKYVSVYAQQGKGEVQEYLIRTSLKELIGQLNPEQFWQVHRSSVVQVSKISKVNKDFAGRMFVYVGETKLPVSRASQSLFKGM”, for which the “soluble on expression in E. coli” value was “not soluble”.

“DEPILSFSPKTYSFRQDGRIKEVSVFTYHKKYNPDKHYIYVVRILREGQIEPSFVFRTFDEFQELHNKLSIIFPLWKLPGFPNRMVLGRTHIKDVAAKRKIELNSYLQSLMNASTDVAECDLVCTFFHPLLRDEKAEGIA”: the “soluble on expression in E. coli” value is “soluble”.

“DEQEKLLRLVDNSVELMSLLGTNNINSYINKAGMELLGFDTMEQVLRTPISELHLKEDFEKVSANVITSLQDKGRWSGQMNVRNLKSGEVIPVYNNTVRIDDPATGEILAFGAVMRDMR”: the “soluble on expression in E. coli” value was “not soluble”.

For the sequence “DIGCYTLGGFEPLNAIDTTICMGASIGMAHGFEMARGKEFAKKSVAVIGDSTFWHSGVTGLIDIVYNKGHSTVIILDNSITAMTGHQENPSTGKTLSGERTNQIDFEALGRSIGINRICVVDAYDLKALEETIKEEVNAEEPSLIITKRPCVLIKGAKFDFKDYKIDP”, the “soluble on expression in E. coli” value is given as “not soluble”.

As for “DIISVALKRHSTKAFDASKKLTAEEAEKIKTLLQYSPSSTNSQPWHFIVASTEEGKARVAKSAAGTYVFNERKMLDASHVVVFCAKTAMDDAWLERVVDQEEADGRFNTPEAKAANHKGRTYFADMHRVDLKDDDQWMAKQVYLNVGNFLLGVGAMGLDAVPIEGFDAAILDEEFGLKEKGFTSLVVVPVGHHSVEDFNATLPKSRLPLSTIVTEC”, the “soluble on expression in E. coli” value is “soluble”.

In the case of “DIQFSAGLFFQYNLSENFSLRIDPTFDRKGYQYKDITFTDNSGNILGTGKLYGHLDYITIPVLFKASVGNKVKYFVNAGPSIGLLLSETFIYDNPYGNGNQKTHNTNQYKKADAGITAGLGIAIPLGNAIALSFEVRNNVGLTNINKNSNANSAIHANTTSMLVGVAYKF”, the “soluble on expression in E. coli” value is reported as “not soluble”.

“DIQMTQSPSSLSASLGERVSLTCRASQDIGSKLYWLQQEPDGTFKRLIYATSSLDSGVPKRFSGSRSGSDYSLTISSLESEDFVDYYCLQYASSPYTFGGGTKLAIKRADAAPTVSIFPPSSEQLTSGGASVVCFLNNFYPKDINVKWKIDGSERQNGVLNSWTDQDSKDSTYSMSSTLTLTKDEYERHNSYTCEATHKTSTSPIVKSFNRNEC”: the “soluble on expression in E. coli” value was “soluble”.

Consider “DIQMTQSPSSLSASVGDRVTITCRSSQSLVHNNANTYLHWYQQKPGKAPKLLIYKVSNRFSGVPSRFSGSGSGTDFTLTISSLQPEDFATYYCSQNTLVPWTFGQGTKVEIKRTVAAPSVFIFPPSDEQLKSGTASVVCLLNNFYPREAKVQWKVDNALQSGNSQESVTEQDSKDSTYSLSSTLTLSKADYEKHKVYACEVTHQGLSSPVTKSFNRGEC”, for which the “soluble on expression in E. coli” value was “soluble”.

“DIVEAQPSHPDKLLEVPLGRDISGMVQTADLSKMPHLLIAGSTGSGKSVAINGIITGILMQAKPHEVKLMMIDPKMVELNVYNGIPHLLTPVVTNPRKAAQALQKVVQEMEFRYEKFAATGVRNITGYNQLIQQKNAEDGENRPILPFIVVIVDELADLMMVASNEVEDAIIRLAQMARAAGIHMILATQRPSV”: the “soluble on expression in E. coli” value is “not soluble”.

Turning to “DKLYPCQCGKSFTHKSQRDRHMSMHLGLRPYGCGVCGKKFKMKHHLVGHMKIHTGIKPYECNICAKRFMWRDSFHRHVTSCTKSYEAAKAEQNTTEA”, the “soluble on expression in E. coli” value was “soluble”.

“DLGTQFLKIGIVKPGIPMDIALNTESRRKTPNVVMIQDGHRTFADAAIGMQVRYPHLVHGQLNDLVGKSTQHPSFELFKRRNTFFEVDDAPKNASSINFKLGGESYTVEALTAMILANAKKFTEEYAQAAEIKDVVITVPVYFTPAERLAVERAAQMAGLTVLQLINDGTAAALSHGIFRRKEIGEKPQRLMVYDMGAAKTTATIVEFKLVKEKYEKQPKMTVLGVGFDRTLGGIEMTNRLRDHLIEMFEKNYKPKTKVNTNRRAMTKFSKEAERLKQVLSANAEHFAQIESAHEDIDAKLKVTREDFNHLISDMESRFGEPIEQALRMAQIPIDDIDQFVLMGAGTRVPKVQEIVQKTIGTKEIGKFLNTDEAVAMGALFQAAHLSKGFKVKPFNIEEKVIFPVEVHFVSKIRDEKTEEITGEKNVVKTLFAANSVYPTHPKTISLTSYSDDFSVALKYGKIESFTKQQVQEIGSLLDNLVDVEISGLSEALKNRSSEESEFKGVKVSFIVDASGIVRVRRAEALFEPKSGLVGSIASTISGLFSSKTEEGEPTTDDSTPQSTEEKTEEKESVKVEDSTPEPEPETPVNSTSEESPKTNETEKNASSGNATEVKEKKKELPSIVRLRITNKYPSAFVPNKYDVQEEKRRMEAFAEKERLASERAAVENELESFNFECSQYLEETEFTDYMADEEKTKLEDSVKRIRAWLEDDVTKDTPTKDFTDNLLELKNVVRSVKKRQEHDKAVPEKLKSLETLLETTFSLTTLGNNVDEEKALFKKEDRDGLKSKLDKLKIWVTDVRKHLDLKKKTDDFNFTGKDIDTKTKNLNREVDRFMKKMKKITTLDDLAKDGKIDIDTIVEEAEKKKAEQDKKKEKKSTKKANESKVENESEIKTEL”: the “soluble on expression in E. coli” value is reported as “not soluble”.

For the sequence “DMNYTYTSIAAIDGNIKTFVAAPRVGYRWQYDGGRELRVFVGAMYQNVQQELSGDLKSLNLPPQLLGLVENLSPDAGFNVSQSADENWNSVLGFQYAFNKDWEILMEAGFGERETLFFSLGRRF”, the “soluble on expression in E. coli” value is recorded as “not soluble”.

Regarding “DPFEDLDALGSILEEKYGLLEAHVVFSPTPDYAGITHDLSRYGAEYMHETVKDGDIVGVSWGTTMYQIAQNMQPKQVKGVEVVQLKGGISHSRVNTYSAETIQLFAEAFQTMPRYLPLPVVFDNADVKRMVEKDRHIERIIEMGKQANIALFTVGTVRDEALLFRLGYFNEEEKALLKKQAVGDICSRFFDAKGNICSSAINDRTIGVELQDLRLKERSILVAGGSRKVSSIHGALTGKYANVLIIDQHTARALVNDL”, the “soluble on expression in E. coli” value is on record as “not soluble”.

For the sequence “DPTAQSLQDISDEQVLVLFEQMLVDMNLNEEKQQPLREKDIVIKREMVSQYLHTSKAGMNQKESSRSAMMYIQELRSGLRDMHLLSCLESLRVSLTSHPVSWVQTFGAEGLASLLDILKRLHDEKEETSGNYDSRNQHEIIRCLKAFMNNKFGIKTMLETEEGILLLVRAMDPAVPNMMIDAAKLLSALCILPQPEDMNERVLEAMTERAEMDEVERFQPLLDGLKSGTSIALKVGCLQLINALITPAEELDFRVHIRSELMRLGLHQVLQELREIENEDMKVQLCVFDEQGDEDFFDLKGRLDDIRMEMDDFGEVFQIILNTVKDSKAEPHFLSILQHLLLVRNDYEARPQYYKLIEECVSQIVLHKNGTDPDFKCRHLQID”, the “soluble on expression in E. coli” value is recorded as “soluble”.

On to “DQEVRLENRITFQLELVGLERVVRISAKPTKRLQEALQPILAKHGLSLDQVVLHRPGEKQPMDLENPVSSVASQTLVLDTPPDAKMSEARS”, for which the “soluble on expression in E. coli” value is recorded as “soluble”.

Take “DRHVDTHSEVLIFEVIPADDFLQQQLQITVQDRVWHVKRVRYRKQKPMALEETWMPLALFPDLTWQVMENSKYHFIEEVKKMVIDRSEQEIIPLMPTEEMSRLLNISQTKPILEKVSRGYLVDGRVFEYSRNAFNTDDYK”: the “soluble on expression in E. coli” value is reported as “not soluble”.

Regarding “DRRFQETLDKIRKEEGYDFAAIAFYESNKPSSPIKWHYVSGNKNNRFKLIILRKGRGLAGTVMKTGKRMVIANVGLALGPEEKIDYPILLSESLTAVLAVPLWYKNQVYGVLLFGQRDGRPLPKIFDNDDIQ”, the “soluble on expression in E. coli” value is recorded as “not soluble”.

For the sequence “DRTTYYSILGLTSNATSSEVHKSYLKLARLLHPDKTKSDKSEELFKAVVHAHSILTDEDQKLRYDRDLKIKGLHTYQPKK”, the “soluble on expression in E. coli” value is “not soluble”.

For the sequence “DSRGCARWCPQDSSCVNATACRCNPGFSSFSEIITTPMETCDDINECATLSKVSCGKFSDCWNTEGSYDCVCSPGYEPVSGAKTFKNESENTCQDVDECSSGQHQCDSSTVCFNTVGSYSCRCRPGWKPRHGIPNNQKDTVCE”, the “soluble on expression in E. coli” value is “soluble”.

In the case of “DSVIVVDNVPQVGPDRLEKLKNVIHKIFSKFGKITNDFYPEEDGKTKGYIFLEYASPAHAVDAVKNADGYKLDKQHTFRVN”, the “soluble on expression in E. coli” value was “soluble”.

In the case of “DTRNEAEACLRYVKTKFARTMLGILKATQDNPKETWRLVPLQDFTAESDIDWTQPVAEIDRQLYRKYGLNESEIAFVEEKVRPMD”, the “soluble on expression in E. coli” value is recorded as “not soluble”.

For “EAHQIRRSGNYQPALWDSNYIQSLNTPYTEERHLDRKAELIVQVRILLKEKMEPVQQLELIHDLKYLGLSDFFQDEIKEILGVIYNEHKCFHNNEVEKMDLYFTALGFRLLRQHGFNISQDVFNCFKNEKGIDFKASLAQDTKGMLQLYEASFLLRKGEDTLELAREFATKCLQKKLDEGGNEIDENLLLWIRHSLDLPLHWRIQSVEARWFIDAYARRPDMNPLIFELAKLNFNIIQATHQQELKDLSRWWSRLCFPEKLPFVRDRLVESFFWAVGMFEPHQHGYQRKMAATIIVLATVIDDIYDVYGTLDELELFTDTFKRWDTESITRLPYYMQLCYWGVHNYISDAAYDILKEHGFFCLQYLRKSVVDLVEAYFHEAKWYHSGYTPSLDEYLNIAKISVASPAIISPTYFTFANASHDTAVIDSLYQYHDILCLAGIILRLPDDLGTSYFELARGDVPKTIQCYMKETNASEEEAVEHVKFLIREAWKDMNTAIAAGYPFPDGMVAGAANIGRVAQFIYLHGDGFGVQHSKTYEHIAGLLFEPYA”, the “soluble on expression in E. coli” value is on record as “soluble”.

Consider “EAIKWDKAPCRFCGTGCGVLVGTQQGRVVACQGDPDAPVNRGLNCIKGYFLPKIMYGKDRLTQPLLRMKNGKYDKEGEFTPITWDQAFDVMEEKFKTALKEKGPESIGMFGSGQWTIWEGYAASKLFKAGFRSNNIDPNARHCMASAVVGFMRTFGMDEPMGCYDDIEQADAFVLWGANMAEMHPILWSRITNRRLSNQNVTVAVLSTYQHRSFELADNGIIFTPQSDLVILNYIANYIIQNNAINQDFFSKHVNLRKGATDIGYGLRPTHPLEKAAKNPGSDASEPMSFEDYKAFVAEYTLEKTAEMTGVPKDQLEQLAQLYADPNKKVISYWTMGFNQHTRGVWANNLVYNLHLLTGKISQPGCGPFSLTGQPSACGTAREVGTFAHRLPADMVVTNEKHRDICEKKWNIPSGTIPAKIGLHAVAQDRALKDGKLNVYWTMCTNNMQAGPNINEERMPGWRDPRNFIIVSDPYPTVSALAADLILPTAMWVEKEGAYGNAERRTQFWRQQVQAPGEAKSDLWQLVQFSRRFKTEEVWPEDLLAKKPELRGKTLYEVLYATPEVSKFPVSELAEDQLNDESRELGFYLQKGLFEEYAWFGRGHGHDLAPFDDYHKARGLRWPVVNGKETQWRYSEGNDPYVKAGEGYKFYGKPDGKAVIFALPFEPAAEAPDEEYDLWLSTGRVLEHWHTGSMTRRVPELHRAFPEAVLFIHPLDAKARDLRRGDKVKVVSRRGEVISIVETRGRNRPPQGLVYMPFFDAAQLVNKLTLDATDPLSKETDFKKCAVKLEKV”, for which the “soluble on expression in E. coli” value was “soluble”.

Turning to “EDNSRYTHFLTQHYDAKPQGRDDRYCESIMRRRGLTSPCKDINTFIHGNKRSIKAICSQKNVACKNGQTNCYISKSSFQVTTCKLHGGSPWPPCQYRATAGFRNVVVACENGLPVHLDQSIFR”, the “soluble on expression in E. coli” value was “soluble”.

As to “EEIFCHVYITEHSYVSVKAKVSSIAQEILKVVAEKIQYAEEDLALVAITFSGEKHELQPNDLVISKSLEASGRIYVYRKDLADTLNPFAEN”, the “soluble on expression in E. coli” value was “soluble”.

Turning to “EETDESNDMRPLFDTILKYTPAPSGSADETLQLQISQLDYDNYTGRLGIGRILNGRIKPGQTVAVMNHDQQIAQGRINQLLGFKGLERVPLEEAEAGD”, the “soluble on expression in E. coli” value is “not soluble”.
